“And” between values parts separate entries of the source, which are not always exact repeats. Identical values can stand only once.
Columns and labels:
Experiment in all cases: SEC-MALS
[1] = molecular target: Hsf1 CS mutant (C35S/C103S/C153S/C373S/C378S) (human) (UniProt Q00613)
[2] = molecular target: T1, Heat shock factor 1 (Hsf1) (human), Q00613; details: remark: other sources report otherwise
T1 chain: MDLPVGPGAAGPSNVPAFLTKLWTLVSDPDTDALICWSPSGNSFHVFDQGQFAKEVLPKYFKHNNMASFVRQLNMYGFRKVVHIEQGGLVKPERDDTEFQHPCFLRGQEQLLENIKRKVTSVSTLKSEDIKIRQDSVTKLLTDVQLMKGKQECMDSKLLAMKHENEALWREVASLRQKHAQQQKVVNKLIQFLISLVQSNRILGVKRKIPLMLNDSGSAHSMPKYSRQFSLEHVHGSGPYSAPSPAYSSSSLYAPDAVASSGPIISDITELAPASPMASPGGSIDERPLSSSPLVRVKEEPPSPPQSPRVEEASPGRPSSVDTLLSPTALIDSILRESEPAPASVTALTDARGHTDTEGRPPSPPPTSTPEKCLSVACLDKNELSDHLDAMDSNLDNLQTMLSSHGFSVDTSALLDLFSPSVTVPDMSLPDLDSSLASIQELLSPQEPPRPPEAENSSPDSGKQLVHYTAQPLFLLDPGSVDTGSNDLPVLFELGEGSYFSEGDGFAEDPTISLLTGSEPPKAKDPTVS

[3] = molecular target: T1, Heat shock factor 1 (Hsf1) (human), …; details: remark: other sources report otherwise

Molecule	stoichiometry N [1]	stoichiometry N [2]	stoichiometry N [3]
Hsf1 CS mutant (C35S/C103S/C153S/C373S/C378S) (from UniProt Q00613 1-529) (natural protein)	5	–	–
Heat shock factor 1 (Hsf1), Q00613 1-529 (natural protein) MDLPVGPGAAGPSNVPAFLTKLWTLVSDPDTDALICWSPSGNSFHVFDQGQFAKEVLPKYFKHNNMASFVRQLNMYGFRKVVHIEQGGLVKPERDDTEFQHPCFLRGQEQLLENIKRKVTSVSTLKSEDIKIRQDSVTKLLTDVQLMKGKQECMDSKLLAMKHENEALWREVASLRQKHAQQQKVVNKLIQFLISLVQSNRILGVKRKIPLMLNDSGSAHSMPKYSRQFSLEHVHGSGPYSAPSPAYSSSSLYAPDAVASSGPIISDITELAPASPMASPGGSIDERPLSSSPLVRVKEEPPSPPQSPRVEEASPGRPSSVDTLLSPTALIDSILRESEPAPASVTALTDARGHTDTEGRPPSPPPTSTPEKCLSVACLDKNELSDHLDAMDSNLDNLQTMLSSHGFSVDTSALLDLFSPSVTVPDMSLPDLDSSLASIQELLSPQEPPRPPEAENSSPDSGKQLVHYTAQPLFLLDPGSVDTGSNDLPVLFELGEGSYFSEGDGFAEDPTISLLTGSEPPKAKDPTVS	–	7	9 and < 16
